The record followed here is IntAct's records for PubMed 20168298.

B1: Polycystin-2 (Homo sapiens), Q13563 (parent)
chain: MVNSSRVQPQQPGDAKRPPAPRAPDPGRLMAGCAAVGASLAAPGGLCEQRGLEIEMQRIRQAAARDPPAGAAASPSPPLSSCSRQAWSRDNPGFEAEEEEEEVEGEEGGMVVEMDVEWRPGSRRSAASSAVSSVGARSRGLGGYHGAGHPSGRRRRREDQGPPCPSPVGGGDPLHRHLPLEGQPPRVAWAERLVRGLRGLWGTRLMEESSTNREKYLKSVLRELVTYLLFLIVLCILTYGMMSSNVYYYTRMMSQLFLDTPVSKTEKTNFKTLSSMEDFWKFTEGSLLDGLYWKMQPSNQTEADNRSFIFYENLLLGVPRIRQLRVRNGSCSIPQDLRDEIKECYDVYSVSSEDRAPFGPRNGTAWIYTSEKDLNGSSHWGIIATYSGAGYYLDLSRTREETAAQVASLKKNVWLDRGTRATFIDFSVYNANINLFCVVRLLVEFPATGGVIPSWQFQPLKLIRYVTTFDFFLAACEIIFCFFIFYYVVEEILEIRIHKLHYFRSFWNCLDVVIVVLSVVAIGINIYRTSNVEVLLQFLEDQNTFPNFEHLAYWQIQFNNIAAVTVFFVWIKLFKFINFNRTMSQLSTTMSRCAKDLFGFAIMFFIIFLAYAQLAYLVFGTQVDDFSTFQECIFTQFRIILGDINFAEIEEANRVLGPIYFTTFVFFMFFILLNMFLAIINDTYSEVKSDLAQQKAEMELSDLIRKGYHKALVKLKLKKNTVDDISESLRQGGGKLNFDELRQDLKGKGHTDAEIEAIFTKYDQDGDQELTEHEHQQMRDDLEKEREDLDLDHSSLPRPMSSRSFPRSLDDSEEDDDEDSGHSSRRRGSISSGVSYEEFQVLVRRVDRMEHSIGSIVSKIDAVIVKLEIMERAKLKRREVLGRLLDGVAEDERLGRDSEIHREQMERLVREELERWESDDAASQISHGLGTPVGLNGQPRPRSSRPSSSQSTEGMEGAGGNGSSNVHV

The variants in the test derive from B1. The conditions noted are these: with pkd1_human PKD1, P98161.
Chain of pkd1_human PKD1, P98161 (P98161 whole entry, looked up): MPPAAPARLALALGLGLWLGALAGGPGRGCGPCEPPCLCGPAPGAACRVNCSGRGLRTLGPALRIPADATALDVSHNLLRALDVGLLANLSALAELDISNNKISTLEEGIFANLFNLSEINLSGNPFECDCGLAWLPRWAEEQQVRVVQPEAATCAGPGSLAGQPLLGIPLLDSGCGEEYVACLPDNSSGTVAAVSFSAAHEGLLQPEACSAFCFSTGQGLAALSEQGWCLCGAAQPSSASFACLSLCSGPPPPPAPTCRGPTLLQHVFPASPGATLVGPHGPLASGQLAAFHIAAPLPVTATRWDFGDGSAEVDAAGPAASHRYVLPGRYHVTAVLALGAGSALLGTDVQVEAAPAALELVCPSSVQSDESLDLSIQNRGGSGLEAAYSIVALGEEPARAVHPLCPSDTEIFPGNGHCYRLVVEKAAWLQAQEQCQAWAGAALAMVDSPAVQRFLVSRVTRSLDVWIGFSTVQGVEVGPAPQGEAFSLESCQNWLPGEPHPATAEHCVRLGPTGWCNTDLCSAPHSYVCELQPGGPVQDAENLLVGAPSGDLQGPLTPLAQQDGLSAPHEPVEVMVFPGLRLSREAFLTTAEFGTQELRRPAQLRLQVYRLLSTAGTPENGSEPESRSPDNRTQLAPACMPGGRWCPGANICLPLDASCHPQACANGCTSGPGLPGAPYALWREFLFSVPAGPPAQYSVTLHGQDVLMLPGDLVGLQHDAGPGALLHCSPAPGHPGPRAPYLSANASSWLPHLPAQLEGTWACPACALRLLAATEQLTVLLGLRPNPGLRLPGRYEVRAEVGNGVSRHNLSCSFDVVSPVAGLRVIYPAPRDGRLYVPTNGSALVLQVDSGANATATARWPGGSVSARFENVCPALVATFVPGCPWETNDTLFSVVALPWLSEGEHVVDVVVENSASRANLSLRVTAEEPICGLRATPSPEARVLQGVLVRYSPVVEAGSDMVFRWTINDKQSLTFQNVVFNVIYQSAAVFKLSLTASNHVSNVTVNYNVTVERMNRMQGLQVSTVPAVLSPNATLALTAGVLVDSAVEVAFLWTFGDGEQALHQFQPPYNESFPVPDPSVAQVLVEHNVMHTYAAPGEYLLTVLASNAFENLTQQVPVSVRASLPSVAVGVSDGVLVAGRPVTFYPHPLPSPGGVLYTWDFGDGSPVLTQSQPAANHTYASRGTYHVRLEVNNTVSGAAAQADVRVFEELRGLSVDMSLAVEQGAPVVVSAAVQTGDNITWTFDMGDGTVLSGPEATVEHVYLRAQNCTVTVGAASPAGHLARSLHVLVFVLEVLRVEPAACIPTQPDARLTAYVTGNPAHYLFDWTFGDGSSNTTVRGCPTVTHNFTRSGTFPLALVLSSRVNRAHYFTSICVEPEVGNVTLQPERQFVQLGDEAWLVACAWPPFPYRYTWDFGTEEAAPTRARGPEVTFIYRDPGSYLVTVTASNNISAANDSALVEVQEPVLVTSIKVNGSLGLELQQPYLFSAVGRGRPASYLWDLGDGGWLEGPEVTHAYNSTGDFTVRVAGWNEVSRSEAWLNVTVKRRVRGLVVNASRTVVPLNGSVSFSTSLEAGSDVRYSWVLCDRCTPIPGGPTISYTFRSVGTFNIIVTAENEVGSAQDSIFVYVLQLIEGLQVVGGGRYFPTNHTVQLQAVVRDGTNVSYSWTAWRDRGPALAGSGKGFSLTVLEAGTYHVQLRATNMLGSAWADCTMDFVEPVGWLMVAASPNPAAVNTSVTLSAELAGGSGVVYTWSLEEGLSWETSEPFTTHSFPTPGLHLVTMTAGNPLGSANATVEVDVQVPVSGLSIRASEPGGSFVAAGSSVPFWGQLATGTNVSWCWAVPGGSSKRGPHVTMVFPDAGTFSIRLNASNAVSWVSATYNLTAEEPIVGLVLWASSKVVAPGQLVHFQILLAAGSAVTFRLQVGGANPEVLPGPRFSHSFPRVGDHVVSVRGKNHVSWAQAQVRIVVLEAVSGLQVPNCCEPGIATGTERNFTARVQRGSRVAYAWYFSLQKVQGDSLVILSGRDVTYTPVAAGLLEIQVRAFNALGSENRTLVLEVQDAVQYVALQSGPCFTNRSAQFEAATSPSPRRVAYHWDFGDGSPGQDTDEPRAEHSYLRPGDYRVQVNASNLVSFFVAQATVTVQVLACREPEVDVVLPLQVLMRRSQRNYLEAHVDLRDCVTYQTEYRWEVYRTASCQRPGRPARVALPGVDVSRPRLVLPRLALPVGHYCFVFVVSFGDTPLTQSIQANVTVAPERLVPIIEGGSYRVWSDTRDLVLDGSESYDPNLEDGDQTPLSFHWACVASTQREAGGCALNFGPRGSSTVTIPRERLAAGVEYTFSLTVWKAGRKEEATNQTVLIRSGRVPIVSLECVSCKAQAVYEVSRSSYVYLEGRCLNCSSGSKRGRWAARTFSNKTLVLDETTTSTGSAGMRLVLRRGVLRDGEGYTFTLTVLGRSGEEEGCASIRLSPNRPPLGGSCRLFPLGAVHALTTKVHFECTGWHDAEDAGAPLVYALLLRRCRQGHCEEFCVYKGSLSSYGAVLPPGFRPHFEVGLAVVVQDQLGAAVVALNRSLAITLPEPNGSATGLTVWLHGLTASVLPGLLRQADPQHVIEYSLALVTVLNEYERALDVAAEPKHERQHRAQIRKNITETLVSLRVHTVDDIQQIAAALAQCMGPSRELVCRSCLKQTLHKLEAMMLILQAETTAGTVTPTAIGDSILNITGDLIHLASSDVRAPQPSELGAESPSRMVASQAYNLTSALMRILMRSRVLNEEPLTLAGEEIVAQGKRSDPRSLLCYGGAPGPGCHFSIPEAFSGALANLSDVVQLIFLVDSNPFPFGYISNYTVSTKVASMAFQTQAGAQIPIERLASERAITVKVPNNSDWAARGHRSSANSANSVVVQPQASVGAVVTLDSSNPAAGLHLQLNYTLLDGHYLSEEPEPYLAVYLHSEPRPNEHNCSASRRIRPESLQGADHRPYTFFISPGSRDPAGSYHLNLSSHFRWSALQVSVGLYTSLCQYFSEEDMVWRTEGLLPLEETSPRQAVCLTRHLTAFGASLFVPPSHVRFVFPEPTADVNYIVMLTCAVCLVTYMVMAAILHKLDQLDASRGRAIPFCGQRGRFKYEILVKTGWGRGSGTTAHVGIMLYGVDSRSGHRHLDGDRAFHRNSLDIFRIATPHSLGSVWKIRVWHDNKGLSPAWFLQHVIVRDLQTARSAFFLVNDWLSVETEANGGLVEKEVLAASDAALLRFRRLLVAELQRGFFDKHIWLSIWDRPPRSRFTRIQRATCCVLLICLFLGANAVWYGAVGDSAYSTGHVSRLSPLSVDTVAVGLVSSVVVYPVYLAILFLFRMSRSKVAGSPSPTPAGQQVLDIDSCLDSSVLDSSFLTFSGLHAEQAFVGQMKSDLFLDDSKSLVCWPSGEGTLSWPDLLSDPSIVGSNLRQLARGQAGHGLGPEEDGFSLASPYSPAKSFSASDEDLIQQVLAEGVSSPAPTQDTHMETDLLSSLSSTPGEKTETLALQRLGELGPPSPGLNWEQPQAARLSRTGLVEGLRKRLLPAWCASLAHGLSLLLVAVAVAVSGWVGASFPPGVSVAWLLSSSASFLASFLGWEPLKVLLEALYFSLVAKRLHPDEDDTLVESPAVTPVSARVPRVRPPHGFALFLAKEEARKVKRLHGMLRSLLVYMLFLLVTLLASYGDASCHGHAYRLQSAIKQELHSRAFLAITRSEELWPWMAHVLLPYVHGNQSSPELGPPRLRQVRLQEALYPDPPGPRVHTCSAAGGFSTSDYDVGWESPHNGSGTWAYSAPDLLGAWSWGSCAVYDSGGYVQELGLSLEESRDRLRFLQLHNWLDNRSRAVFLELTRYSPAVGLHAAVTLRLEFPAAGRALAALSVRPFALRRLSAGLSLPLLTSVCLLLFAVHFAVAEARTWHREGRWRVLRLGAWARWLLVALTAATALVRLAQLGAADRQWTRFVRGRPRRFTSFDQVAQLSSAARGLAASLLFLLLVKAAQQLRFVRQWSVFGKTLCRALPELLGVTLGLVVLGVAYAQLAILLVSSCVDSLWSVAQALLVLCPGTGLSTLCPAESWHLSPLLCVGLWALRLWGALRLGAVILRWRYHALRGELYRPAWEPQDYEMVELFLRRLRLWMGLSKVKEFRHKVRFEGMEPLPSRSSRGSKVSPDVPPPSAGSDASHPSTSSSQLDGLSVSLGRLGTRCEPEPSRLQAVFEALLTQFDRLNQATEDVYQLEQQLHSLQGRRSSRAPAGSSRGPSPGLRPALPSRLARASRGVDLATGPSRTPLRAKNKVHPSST
Turning to L867A, the “effect of a mutation on the interaction” value is reported as “disrupting interaction”. The value for I853A was “disrupting interaction”; that for V846A was “disrupting interaction”; that for I860A was “disrupting interaction”.
